Biological target: the molecule itself
Assay: cryo-EM structure

B1: full-length human NCBE (Na+-dependent Cl-/HCO3- exchanger, SLC4A10) (natural protein, UniProt Q6U841 1-1118, looked up)
chain: MEIKDQGAQMEPLLPTRNDEEAVVDRGGTRSILKTHFEKEDLEGHRTLFIGVHVPLGGRKSHRRHRHRGHKHRKRDRERDSGLEDGRESPSFDTPSQRVQFILGTEDDDEEHIPHDLFTELDEICWREGEDAEWRETARWLKFEEDVEDGGERWSKPYVATLSLHSLFELRSCILNGTVLLDMHANTLEEIADMVLDQQVSSGQLNEDVRHRVHEALMKQHHHQNQKKLTNRIPIVRSFADIGKKQSEPNSMDKNAGQVVSPQSAPACVENKNDVSRENSTVDFSKGLGGQQKGHTSPCGMKQRHEKGPPHQQEREVDLHFMKKIPPGAEASNILVGELEFLDRTVVAFVRLSPAVLLQGLAEVPIPTRFLFILLGPLGKGQQYHEIGRSIATLMTDEVFHDVAYKAKDRNDLVSGIDEFLDQVTVLPPGEWDPSIRIEPPKNVPSQEKRKIPAVPNGTAAHGEAEPHGGHSGPELQRTGRIFGGLILDIKRKAPYFWSDFRDAFSLQCLASFLFLYCACMSPVITFGGLLGEATEGRISAIESLFGASMTGIAYSLFGGQPLTILGSTGPVLVFEKILFKFCKEYGLSYLSLRASIGLWTATLCIILVATDASSLVCYITRFTEEAFASLICIIFIYEALEKLFELSEAYPINMHNDLELLTQYSCNCVEPHNPSNGTLKEWRESNISASDIIWENLTVSECKSLHGEYVGRACGHDHPYVPDVLFWSVILFFSTVTLSATLKQFKTSRYFPTKVRSIVSDFAVFLTILCMVLIDYAIGIPSPKLQVPSVFKPTRDDRGWFVTPLGPNPWWTVIAAIIPALLCTILIFMDQQITAVIINRKEHKLKKGCGYHLDLLMVAVMLGVCSIMGLPWFVAATVLSITHVNSLKLESECSAPGEQPKFLGIREQRVTGLMIFILMGSSVFMTSILKFIPMPVLYGVFLYMGASSLKGIQFFDRIKLFWMPAKHQPDFIYLRHVPLRKVHLFTIIQMSCLGLLWIIKVSRAAIVFPMMVLALVFVRKLMDLLFTKRELSWLDDLMPESKKKKLEDAEKEEEQSMLAMEDEGTVQLPLEGHYRDDPSVINISDEMSKTALWRNLLITADNSKDKESSFPSKSSPS
For B1, the “stoichiometry N” value was 2.

Source: article doi:10.64898/2025.12.15.693380 (bioRxiv, 2025)
